Assay results taken from patent US20030162228A1.
Where no end group is shown, it is not given here.

T1: TAK1 expressed from yeast 2-hybrid expression vector pBTMHu11F (Homo sapiens (Human)) (UniProt O43318)
T1 sequence: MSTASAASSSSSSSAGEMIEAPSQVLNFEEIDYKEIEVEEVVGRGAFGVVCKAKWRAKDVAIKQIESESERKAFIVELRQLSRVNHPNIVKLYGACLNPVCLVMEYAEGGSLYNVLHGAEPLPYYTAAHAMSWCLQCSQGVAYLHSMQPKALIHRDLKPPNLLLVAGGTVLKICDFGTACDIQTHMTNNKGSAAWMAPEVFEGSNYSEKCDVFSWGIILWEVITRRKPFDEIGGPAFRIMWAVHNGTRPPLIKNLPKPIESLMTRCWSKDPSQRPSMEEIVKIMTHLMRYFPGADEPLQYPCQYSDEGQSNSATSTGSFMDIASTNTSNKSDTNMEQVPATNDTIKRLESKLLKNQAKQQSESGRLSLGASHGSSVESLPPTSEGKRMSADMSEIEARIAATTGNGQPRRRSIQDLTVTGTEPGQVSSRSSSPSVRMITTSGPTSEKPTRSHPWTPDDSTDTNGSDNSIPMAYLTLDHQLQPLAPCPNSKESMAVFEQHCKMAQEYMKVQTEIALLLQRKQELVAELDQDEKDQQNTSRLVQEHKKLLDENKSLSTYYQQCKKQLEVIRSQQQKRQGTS


What follows are binders tested against T1, TAK1 expressed from yeast 2-hybrid expression vector pBTMHu11F (Homo sapiens (Human)) (assay: cell-based or functional assay).

β-galactosidase activity of yeast L40 (yeast 2-hybrid), ratio based on TAB1C68 (ratio to TAB1C68)	Binder
0.03	AEFYRLWSVDHGEQSVVTAP (peptide, not shown: large carriers, also: fusion with GAL4 transcription activation domain) [TAB1C20, fusion with the GAL4 transcription activated domain (pGAD-TAB1C20)]
0.03	FAEFYRLWSVDHGEQSVVTAP (peptide, not shown: large carriers, also: fusion with GAL4 transcription activation domain) [TAB1C21, fusion with the GAL4 transcription activated domain (pGAD-TAB1C21)]

Continued, binder first:

Binder	β-galactosidase activity of yeast L40 (yeast 2-hybrid), ratio based on TAB1C68 (ratio to TAB1C68)
VDFAEFYRLWSVDHGEQSVVTAP (peptide, not shown: large carriers, also: fusion with GAL4 transcription activation domain) [TAB1C23, fusion with the GAL4 transcription activated domain (pGAD-TAB1C23)]	0.05
DFAEFYRLWSVDHGEQSVVTAP (peptide, not shown: large carriers, also: fusion with GAL4 transcription activation domain) [TAB1C22, fusion with the GAL4 transcription activated domain (pGAD-TAB1C22)]	0.03
YVDFAEFYRLWSVDHGEQSVVTAP (peptide, not shown: large carriers, also: fusion with GAL4 transcription activation domain) [TAB1C24, fusion with the GAL4 transcription activated domain (pGAD-TAB1C24)]	0.35
